Measured values: the Immune Epitope Database (IEDB)
Each block holds one sequence with its values, some of them ahead of it.

Assays:
[1] = target: HLA-B*51:01; assay: IEDB peptide-MHC binding, purified MHC/competitive/radioactivity; filed as Kd, often an IC50 or EC50 that approximates it; ≥ and ≤ were set here for values at or beyond the usual limits of such assays
[2] = target: HLA-B*15:01; assay: as above
[3] = target: HLA-A*26:01; assay: IEDB peptide-MHC binding, purified MHC/direct/fluorescence; filed as Kd, often an IC50 or EC50 that approximates it; ≥ and ≤ were set here for values at or beyond the usual limits of such assays
[4] = target: HLA-B*08:01; assay: IEDB peptide-MHC binding, purified MHC/competitive/radioactivity; filed as Kd, often an IC50 or EC50 that approximates it; ≥ and ≤ were set here for values at or beyond the usual limits of such assays; conditions: source organism: Vaccinia virus WR
[5] = target: HLA-A*01:01; assay: as above
[6] = target: HLA-A*23:01; assay: as above
[7] = target: HLA-A*24:02; assay: as above
[8] = target: HLA-A*26:01; assay: as above
[9] = target: HLA-A*29:02; assay: as above
[10] = target: HLA-A*30:02; assay: as above
[11] = target: HLA-A*02:01; assay: IEDB peptide-MHC binding, purified MHC/competitive/fluorescence; ≥ and ≤ were set here for values at or beyond the usual limits of such assays
[12] = target: HLA-A*24:02; assay: as above
[13] = target: HLA-B*40:01; assay: IEDB peptide-MHC binding, purified MHC/competitive/radioactivity; filed as Kd, often an IC50 or EC50 that approximates it; ≥ and ≤ were set here for values at or beyond the usual limits of such assays
[14] = target: HLA-B*44:02; assay: as above
[15] = target: HLA-B*44:03; assay: as above
[16] = target: HLA-B*15:01; assay: IEDB peptide-MHC binding, purified MHC/competitive/fluorescence; filed as Kd, often an IC50 or EC50 that approximates it; ≥ and ≤ were set here for values at or beyond the usual limits of such assays; conditions: source organism: Escherichia coli
[17] = target: HLA-B*39:01; assay: as above; conditions: source organism: Escherichia coli
[18] = target: HLA-A*30:01; assay: IEDB peptide-MHC binding, purified MHC/competitive/radioactivity; filed as Kd, often an IC50 or EC50 that approximates it; ≥ and ≤ were set here for values at or beyond the usual limits of such assays; conditions: source organism: Mammarenavirus juninense
[19] = target: HLA-A*32:01; assay: as above; conditions: source organism: Mammarenavirus juninense
[20] = source organism: Dengue virus 3 Martinique/1243/1999
[21] = source organism: Dengue virus 4 Philippines/H241/1956
[22] = source organism: Vaccinia virus WR
[23] = source organism: SARS coronavirus Tor2
[24] = source organism: Zaire ebolavirus
[25] = source organism: Dengue virus 2 Jamaica/1409/1983
[26] = source organism: Mammarenavirus juninense
[27] = source organism: Mammarenavirus guanaritoense
[28] = source organism: Vaccinia virus

Sequence: IPLQWIASAI
Kd [1, 20]: 7.48 nM

Sequence: LIVMDEAHF
Kd [2, 21]: 30.9 nM

Sequence: CVLEAMAFL
Kd ([3]; source organism: Influenza A virus (A/chicken/Hebei/nj/2002(H9N2))): ≥ 20000 nM

Sequence: ESKMSFLPI
Kd [4]: 1.06 nM
Kd [2, 22]: 358 nM

Sequence: MADQAMTQMY
Kd [5, 23]: 18.4 nM
Kd [6, 23]: ≥ 70000 nM
Kd [7, 23]: ≥ 70300 nM
Kd [8, 23]: 2830 nM
Kd [9, 23]: 9.75 nM
Kd [10, 23]: 127 nM

Sequence: LFVTIYSHL
Kd [5, 23]: 3760 nM
Kd [6, 23]: 9.22 nM
Kd [7, 23]: 132 nM
Kd [8, 23]: 1100 nM
Kd [9, 23]: 1420 nM
Kd [10, 23]: ≥ 47400 nM

Sequence: RTSFFLWVI
IC50 [11, 24]: 263 nM
IC50 [12, 24]: 16.9 nM

Sequence: LANFLCLLM
Kd [2, 22]: 1310 nM

Sequence: FEKQLGQVM
Kd [13, 25]: 527 nM
Kd [14, 25]: 319 nM

Sequence: AKNISGQSP
IC50 [12, 24]: ≥ 552000 nM

Sequence: LECSPRTGL
Kd [13, 20]: 599 nM

Sequence: KVSIYKTHI
Kd [2, 22]: 1460 nM

Sequence: IDFLLQRWG
IC50 [11, 24]: ≥ 134000 nM
IC50 [12, 24]: 68400 nM

Kd ([9]; source organism: Homo sapiens): 108 nM
Kd ([14]; source organism: Homo sapiens): 5 nM
Kd ([15]; source organism: Homo sapiens): 2.7 nM
Sequence: AELLNIPFLY

Sequence: IMSKDKPTI
IC50 ([12]; source organism: West Nile virus): 1980 nM

Sequence: MGLNYKLTF
Kd [2, 22]: 3540 nM

Sequence: AGSKYIHCF
Kd [5, 26]: 808 nM
Kd [6, 26]: ≥ 21400 nM
Kd [7, 26]: 5370 nM
Kd [8, 26]: ≥ 77900 nM
Kd [9, 26]: ≥ 78900 nM
Kd [10, 26]: 6500 nM

Sequence: TDSPETHHY
Kd [5, 27]: 16800 nM
Kd [6, 27]: ≥ 77700 nM
Kd [7, 27]: ≥ 77500 nM
Kd [8, 27]: ≥ 77900 nM
Kd [9, 27]: ≥ 78900 nM
Kd [10, 27]: 9320 nM

Kd [16]: ≥ 20000 nM
Kd [17]: 268 nM
Sequence: RHSDTAKAF

Sequence: TLDESFLGRY
Kd [5, 23]: 5.66 nM
Kd [6, 23]: ≥ 70000 nM
Kd [7, 23]: ≥ 70300 nM
Kd [8, 23]: 132 nM
Kd [9, 23]: 155 nM
Kd [10, 23]: 8.32 nM

Sequence: FGAQHSTTL
IC50 ([12]; source organism: Sudan ebolavirus): 60500 nM

Sequence: KVSCSMLEF
Kd ([2]; source organism: Vaccinia virus Copenhagen): 0.84 nM

Sequence: LTNSVIIMAY
Kd [5, 23]: 98.1 nM
Kd [6, 23]: ≥ 70000 nM
Kd [7, 23]: ≥ 70300 nM
Kd [8, 23]: 2000 nM
Kd [9, 23]: 8.07 nM
Kd [10, 23]: 49.1 nM

Sequence: QMAMTDTTPF
Kd [7, 25]: 3560 nM
Kd [2, 25]: 7.23 nM

Sequence: ELGNILSVY
Kd [3, 26]: 16.5 nM
Kd [5, 26]: 16500 nM
Kd [9, 26]: 11000 nM
Kd [18]: 11000 nM
Kd [10, 26]: 4.02 nM
Kd [19]: ≥ 77800 nM

Sequence: HVTRGAVLTY
Kd [8, 20]: 114 nM
Kd [2, 20]: 94 nM

Sequence: KFLTNKLLL
Kd [5, 23]: ≥ 78100 nM
Kd [6, 23]: 379 nM
Kd [7, 23]: 1090 nM
Kd [8, 23]: ≥ 61000 nM
Kd [9, 23]: ≥ 24200 nM
Kd [10, 23]: ≥ 27300 nM

Sequence: ATNLEYKTL
IC50 [11, 28]: ≥ 85800 nM
IC50 [12, 28]: 43600 nM

Sequence: REPVNATED
IC50 [11, 24]: ≥ 383000 nM
IC50 [12, 24]: 12700 nM

Sequence: AETQHGTTV
Kd [13, 21]: 20.8 nM
Kd [15, 21]: 1460 nM

Sequence: KPWDVIPMV
Kd ([1]; source organism: Dengue virus 1 Brazil/97-11/1997): 1110 nM

Sequence: SETFSMGLL
Kd [13, 21]: 3.53 nM

Sequence: IIIPFIAYF
Kd [2, 22]: 1.59 nM

Sequence: KVKSCLCSF
Kd [2, 22]: 16.6 nM

Sequence: FIFNIIMSF
Kd [2, 22]: 399 nM

Sequence: EIDETCEHEY
Kd [5, 23]: 197 nM
Kd [6, 23]: ≥ 70000 nM
Kd [7, 23]: ≥ 70300 nM
Kd [8, 23]: 492 nM
Kd [9, 23]: 656 nM
Kd [10, 23]: 1060 nM
